From patent US20060002951A1

Target: wild-type human APOBEC3G with a fused HA tag at the C-terminus (human) (UniProt Q9HC16)
Experiment: co-immunoprecipitation with anti-HA from 293T cell lysate, Western blot with anti-CA; ratio normalized to hGag

Chain of wild-type human APOBEC3G with a fused HA tag at the C-terminus (human) (Q9HC16 whole entry, the tested form may be a part): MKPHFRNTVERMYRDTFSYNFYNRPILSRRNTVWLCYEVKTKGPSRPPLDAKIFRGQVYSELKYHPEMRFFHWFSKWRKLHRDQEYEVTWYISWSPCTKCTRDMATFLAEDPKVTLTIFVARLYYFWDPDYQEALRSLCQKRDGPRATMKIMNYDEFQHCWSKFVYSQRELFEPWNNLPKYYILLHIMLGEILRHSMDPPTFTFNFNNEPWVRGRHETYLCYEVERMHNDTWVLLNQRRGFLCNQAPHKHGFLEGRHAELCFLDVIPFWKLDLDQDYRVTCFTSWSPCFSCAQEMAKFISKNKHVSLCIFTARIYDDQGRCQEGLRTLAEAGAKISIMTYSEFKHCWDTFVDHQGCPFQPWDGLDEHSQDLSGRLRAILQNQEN

In the case of “hGag deletion mutant Δ378-500 (from UniProt P04585 1-377)”, the reduction in the interaction of Gag with APOBEC3G against hGag is reported as over 95%.
